Measurements from article PMC9402439, “Reconstitution of a telomeric replicon organized by CST”.

Target: Polα-primase, recombinant (Insect PP) (Homo sapiens, UniProt P09884;Q14181;P49642;P49643 1-1462;1-598;1-420;1-509)
Assay: EMSA; Kd,app similar to CST-Polα-primase, value only in figure; complex dissociates during electrophoresis; CST EMSA: 20 mM HEPES-NaOH pH 8.0, 150 mM NaCl, 2 mM MgCl2, 0.2 mM EGTA, 0.1% NP-40, 10% glycerol, 1 mM DTT, 2 h on ice, 0.7% agarose 1x TBE gel at 4 °C; POT1-TPP1N EMSA: C-strand synthesis buffer, 30 min at 30 °C
Conditions: protein: recombinant; copies: 1;1;1;1; label: 5'-32P; folds into G-quadruplex in KCl and NaCl, not LiCl

Sequence of Polα-primase, recombinant (Insect PP) (P09884 whole entry, chain 1 of 4): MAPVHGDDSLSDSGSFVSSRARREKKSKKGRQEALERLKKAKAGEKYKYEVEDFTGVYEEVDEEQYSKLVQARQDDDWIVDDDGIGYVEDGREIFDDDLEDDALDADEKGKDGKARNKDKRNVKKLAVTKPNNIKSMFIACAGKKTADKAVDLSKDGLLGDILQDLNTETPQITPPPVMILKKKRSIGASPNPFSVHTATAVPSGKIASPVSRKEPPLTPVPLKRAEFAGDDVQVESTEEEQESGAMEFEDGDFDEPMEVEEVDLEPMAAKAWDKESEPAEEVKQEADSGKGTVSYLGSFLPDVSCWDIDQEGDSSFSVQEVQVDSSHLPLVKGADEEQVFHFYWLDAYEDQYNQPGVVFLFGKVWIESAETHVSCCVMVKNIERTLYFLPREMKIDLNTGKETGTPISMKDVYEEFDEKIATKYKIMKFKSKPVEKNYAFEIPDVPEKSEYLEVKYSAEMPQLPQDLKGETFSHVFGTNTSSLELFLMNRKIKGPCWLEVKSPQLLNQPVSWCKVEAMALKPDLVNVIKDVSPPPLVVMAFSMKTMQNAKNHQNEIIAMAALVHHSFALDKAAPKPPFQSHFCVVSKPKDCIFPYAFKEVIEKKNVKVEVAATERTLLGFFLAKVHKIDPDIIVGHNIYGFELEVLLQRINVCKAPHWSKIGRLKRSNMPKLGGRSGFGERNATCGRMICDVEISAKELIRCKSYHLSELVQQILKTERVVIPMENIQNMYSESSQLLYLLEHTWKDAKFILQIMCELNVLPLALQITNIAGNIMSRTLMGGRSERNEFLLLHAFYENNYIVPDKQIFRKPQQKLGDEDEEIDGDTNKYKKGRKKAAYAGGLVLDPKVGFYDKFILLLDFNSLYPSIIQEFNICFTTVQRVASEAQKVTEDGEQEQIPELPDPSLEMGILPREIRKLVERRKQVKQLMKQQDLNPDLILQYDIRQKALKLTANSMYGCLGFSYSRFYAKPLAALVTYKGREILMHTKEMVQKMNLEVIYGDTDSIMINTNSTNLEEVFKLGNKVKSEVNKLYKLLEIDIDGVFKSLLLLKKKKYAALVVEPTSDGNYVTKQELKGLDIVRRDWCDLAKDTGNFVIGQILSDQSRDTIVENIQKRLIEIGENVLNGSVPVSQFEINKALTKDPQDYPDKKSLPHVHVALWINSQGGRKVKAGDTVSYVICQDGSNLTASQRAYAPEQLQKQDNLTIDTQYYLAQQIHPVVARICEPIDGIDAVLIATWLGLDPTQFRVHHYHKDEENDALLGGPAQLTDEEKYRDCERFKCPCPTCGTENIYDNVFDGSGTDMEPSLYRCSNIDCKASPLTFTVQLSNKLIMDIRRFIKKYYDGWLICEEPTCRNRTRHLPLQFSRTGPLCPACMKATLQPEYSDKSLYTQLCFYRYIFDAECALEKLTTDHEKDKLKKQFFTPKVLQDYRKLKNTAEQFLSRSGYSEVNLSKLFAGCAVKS
Sequence of Polα-primase, recombinant (Insect PP) (Q14181 whole entry, chain 2 of 4): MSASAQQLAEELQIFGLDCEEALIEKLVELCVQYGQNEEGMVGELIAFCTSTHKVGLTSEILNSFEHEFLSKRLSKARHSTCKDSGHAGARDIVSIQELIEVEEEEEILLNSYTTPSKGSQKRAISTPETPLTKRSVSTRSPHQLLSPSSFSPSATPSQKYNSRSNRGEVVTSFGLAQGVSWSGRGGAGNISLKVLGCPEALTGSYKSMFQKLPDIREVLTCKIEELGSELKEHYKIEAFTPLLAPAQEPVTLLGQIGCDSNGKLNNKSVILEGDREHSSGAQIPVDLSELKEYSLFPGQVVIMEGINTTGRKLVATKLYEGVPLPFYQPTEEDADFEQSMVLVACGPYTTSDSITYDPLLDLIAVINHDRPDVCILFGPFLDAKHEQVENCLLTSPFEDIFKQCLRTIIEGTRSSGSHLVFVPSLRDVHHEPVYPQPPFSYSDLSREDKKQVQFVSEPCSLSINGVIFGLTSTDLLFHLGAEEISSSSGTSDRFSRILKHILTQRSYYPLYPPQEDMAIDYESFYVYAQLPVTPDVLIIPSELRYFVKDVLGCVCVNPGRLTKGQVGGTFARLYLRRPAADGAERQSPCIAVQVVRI
Sequence of Polα-primase, recombinant (Insect PP) (P49642 whole entry, chain 3 of 4): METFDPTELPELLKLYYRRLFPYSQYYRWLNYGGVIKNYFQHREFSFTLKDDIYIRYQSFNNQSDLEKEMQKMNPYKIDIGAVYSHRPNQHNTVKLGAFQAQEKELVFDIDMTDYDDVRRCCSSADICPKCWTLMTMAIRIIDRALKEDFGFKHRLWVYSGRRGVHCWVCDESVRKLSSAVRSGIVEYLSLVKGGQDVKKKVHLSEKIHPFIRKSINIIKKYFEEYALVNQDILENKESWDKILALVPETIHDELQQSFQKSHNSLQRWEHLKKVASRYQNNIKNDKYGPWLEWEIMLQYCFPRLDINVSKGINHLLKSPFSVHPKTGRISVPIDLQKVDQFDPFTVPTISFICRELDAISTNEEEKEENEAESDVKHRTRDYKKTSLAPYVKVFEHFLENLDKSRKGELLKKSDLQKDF
Sequence of Polα-primase, recombinant (Insect PP) (P49643 whole entry, chain 4 of 4): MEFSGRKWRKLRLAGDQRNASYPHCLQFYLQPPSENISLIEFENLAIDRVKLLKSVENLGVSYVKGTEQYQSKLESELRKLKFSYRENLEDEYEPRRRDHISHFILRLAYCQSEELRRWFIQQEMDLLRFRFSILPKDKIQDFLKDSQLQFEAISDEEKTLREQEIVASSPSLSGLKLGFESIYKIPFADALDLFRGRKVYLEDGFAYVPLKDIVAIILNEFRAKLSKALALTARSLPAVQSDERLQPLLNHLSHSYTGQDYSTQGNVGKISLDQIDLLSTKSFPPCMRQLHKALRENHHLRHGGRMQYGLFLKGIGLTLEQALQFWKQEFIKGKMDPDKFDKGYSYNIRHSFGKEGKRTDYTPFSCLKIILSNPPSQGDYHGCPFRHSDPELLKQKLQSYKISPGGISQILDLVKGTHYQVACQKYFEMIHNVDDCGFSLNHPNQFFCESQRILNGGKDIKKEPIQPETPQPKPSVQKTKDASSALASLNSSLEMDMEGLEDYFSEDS

B1: 9xTEL (ssDNA)
DNA: TTAGGGTTAGGGTTAGGGTTAGGGTTAGGGTTAGGGTTAGGGTTAGGGTTAGGG
B1: binds.
